Results on 3 molecules are retold here after patent US10131920B2, “Nucleic acid molecules” (MEDIMMUNE LIMITED, priority 2013, dated 2018).

In data set [1] the test system is GFPY40 reporter in 3H7 cells. The data set can be described thus: Amber suppression-dependent GFP expression (GFPY40 reporter), transient transfection of 3H7 cells, flow cytometry. Type of data set: cell-based. The conditions noted are these: three days; for GFP MFI, FIG. 11: 1 ug GFPY40 and 1 ug tRNA expression vector, lys-azide. As to the method:
To assess the function of the tRNA variants, an in vitro assay was established where cells are transiently transfected with a tRNA construct and a reporter construct encoding GFP containing an amber codon interrupting its reading frame (GFPY40). HEK293 cells stably expressing pylRS were transiently transfected with various tRNA constructs (1 ug) and the GFPY40 reporter (1 ug). In the absence of elements that support amber suppression, a truncated GFP protein is generated and the cell is not fluorescent. However, the introduction of a functional tRNA and the presence of a nnAA that supports amber suppression allows for the production of full length GFP resulting in fluorescent cells. The level of GFP expression reflects the efficiency of amber suppression and is quantified by flow cytometry. tRNA genes encoding wild type tRNApyl (WT tRNA), or containing mutations in the B-box (B tRNA—SEQ ID No 9), in both the A and B box (A2B tRNA—SEQ ID No 10), or in the A box (A1 tRNA-SEQ ID No 7; or A2 tRNA SEQ ID No 11), all under control of the H1 promoter were generated by site directed mutagenesis and assayed. The H1 promoter ensured that the variants were expressed and allowed us to examine the functional effects of the mutations introduced into the tRNA genes. In addition a sample transfected with GFPY40 alone was generated to establish background GFP levels. The transfected cells were grown in presence of the aminoacid analogue lys azide (2 mM) and incubated for 18 hours. GFP fluorescence was then assayed by flow cytometry and mean fluorescence intensity determined for each sample. Data were analysed with FCS Express and the mean fluorescence intensity of each sample determined using markers that constrain the data set to cells showing fluorescence above negative controls. […] The constructs thus are functional and may contain the necessary genetic sequence to enable the expression of the tRNA also in the absence of an upstream promoter element such as the H1 promoter.
Having established that the B mutation introduced into the pyltRNA sequence enabled expression of the tRNA that supported amber suppression we then asked whether this mutation affected the orthogonality of the tRNA and led to the incorporation of natural amino acids. To do this 3H7 cells were transiently transfected with expression constructs encoding WT-tRNA, B-tRNA, H1-tRNA and H1-B tRNA along with the GFPY40 reporter. Transfected cells were grown in the presence of 2 mM lys azide or absence of nnAA as indicated (FIG. 6), and GFP expression assessed by flow cytometry after three days. In addition, a sample transfected only with GFPY40 was examined to determine background amber suppression levels in the absence of tRNA. […] A comparison of GFP expression between the WT tRNA (MFI 33,781) and tRNA B (232,505) lacking extragenic promoter elements confirms that the B mutation generates a functional intragenic promoter. Indeed, the B tRNA construct enabled a seven-fold increase in the level of amber suppression dependent expression of GFP over WT tRNA.
We also tested the utility of a bicistronic tRNA expression construct for its ability to express tRNApyl. Here, the murine tRNA Glu and tRNA Asp were utilized. In each case, multiple repeats of the constructs were generated to increase activity (3×Glu-pyl and 2×Asp-pyl). Here, 3H7 cells were transiently transfected with 1 ug of the reporter construct GFPY40 and 1 ug of the indicated tRNA expression vectors (FIG. 11) and incubated with lys-azide for three days. Data were collected by flow cytometry and mean fluorescence intensities for each sample were plotted. […] The construct consisting of the 7SL WT tRNA (MFI=312) was included as a metric for low efficiency. In addition cell lines containing only the GFPY40 reporter were used as negative controls (MFI=0).

For data set [2], the system named is GFPY40 reporter (GFP containing an amber codon) in HEK293 cells stably expressing pylRS. The data set can be described thus: Amber suppression-dependent GFP expression (GFPY40 reporter), transient transfection, flow cytometry. The conditions noted are these: for GFP MFI, FIG. 8: 1 ug PCR product of each construct, lys azide nnAA; for GFP MFI, FIG. 10: cells stably expressing WTpylRS, lys azide; for GFP MFI, FIG. 9: 1 ug GFPY40 reporter and 1 ug tRNA expression plasmid. The format is cell-based. Here is the method: To assess the function of the tRNA variants, an in vitro assay was established where cells are transiently transfected with a tRNA construct and a reporter construct encoding GFP containing an amber codon interrupting its reading frame (GFPY40). HEK293 cells stably expressing pylRS were transiently transfected with various tRNA constructs (1 ug) and the GFPY40 reporter (1 ug). In the absence of elements that support amber suppression, a truncated GFP protein is generated and the cell is not fluorescent. However, the introduction of a functional tRNA and the presence of a nnAA that supports amber suppression allows for the production of full length GFP resulting in fluorescent cells. The level of GFP expression reflects the efficiency of amber suppression and is quantified by flow cytometry. tRNA genes encoding wild type tRNApyl (WT tRNA), or containing mutations in the B-box (B tRNA—SEQ ID No 9), in both the A and B box (A2B tRNA—SEQ ID No 10), or in the A box (A1 tRNA-SEQ ID No 7; or A2 tRNA SEQ ID No 11), all under control of the H1 promoter were generated by site directed mutagenesis and assayed. The H1 promoter ensured that the variants were expressed and allowed us to examine the functional effects of the mutations introduced into the tRNA genes. In addition a sample transfected with GFPY40 alone was generated to establish background GFP levels. The transfected cells were grown in presence of the aminoacid analogue lys azide (2 mM) and incubated for 18 hours. GFP fluorescence was then assayed by flow cytometry and mean fluorescence intensity determined for each sample. Data were analysed with FCS Express and the mean fluorescence intensity of each sample determined using markers that constrain the data set to cells showing fluorescence above negative controls.
To begin to assess whether the tRNA mutations can support expression of the tRNA we assayed tRNA constructs encoding the wild type tRNA in the absence of the H1 promoter. Constructs encoding wild type tRNApyl (WT tRNA) or containing mutations in the B-box (B tRNA—SEQ ID No 9) or in both the A and B box (A2B; A2B tRNA—SEQ ID No 10) were assayed using our in vitro amber suppression assay described above. WT tRNA under control of the H1 promoter (H1-tRNA) was used as a positive control, and in addition one sample was transfected only with the GFPY40 reporter to illustrate background amber suppression in the absence of tRNA. The transfected cells were exposed to 2 mM lys-azide nnAA and cells incubated for three days. GFP expression was examined by flow cytometry and mean fluorescence intensity determined.
Two copies of the WT, B, or A2B tRNA were cloned in tandem to generate a single vector containing two copies of WT, B, or A2B tRNA. To assess the effect of increased gene doses by these constructs, cells expressing WTpylRS were transiently transfected with the tRNA constructs and the GFPY40 reporter construct and GFP expression assayed after two days.
The activity of each construct was assessed by transient transfection into cells stably expressing WT pylRS with the GFPY40 reporter as described above. For this experiment, 1 ug of a PCR product encoding each of the indicated constructs was used. In each case, cells were exposed to the lys azide nnAA for three days and GFP levels assayed by flow cytometry. Mean fluorescence intensities were determined for each sample and plotted (FIG. 8).
For orientation: Flow cytometry measures light scatter and fluorescence of single cells or particles in a stream.

B1: 7SL WT tRNA: WT tRNApyl downstream of the 7SL promoter 5′ region (nucleic acid)
DNA: CCCAGTTGATGACGTCACCATACCACAGCTTCTAGTGCTATTCTGCGCCGGTATCCGACCACCAGGAAACCTGATCATGTAGATCGAATGGACTCTAAATCCGTTCAGCCGGGTTAGATTCCCGGGGTTTCCGGACAAGTGCGGTTTTT
modifications: Synthetic sequence 7SL tRNA-WT construct
notes: WT tRNApyl downstream of the 7SL promoter 5′ region
In the case of B1, in data set [1], the “GFP MFI, FIG. 11” value is reported as 312. In data set [2] (three days), the “GFP MFI, FIG. 8” value was 106,075 and the “GFP MFI, FIG. 10” value is 312.

B2: 7SL B tRNA: tRNA-B downstream of the 7SL promoter 5′ region (nucleic acid)
DNA: CCCAGTTGATGACGTCACCATACCACAGCTTCTAGTGCTATTCTGCGCCGGTATCCGACCACCAGGAAACCTGATCATGTAGATCGAATGGACTCTAAATCCGTTCAGCCGGGTTCGATTCCCGGGGTTTCCGGACAAGTGCGGTTTTT
modifications: Synthetic sequence 7SL tRNA-B construct
notes: tRNA-B downstream of the 7SL promoter 5′ region
As for B2, the “GFP MFI, FIG. 11” value in data set [1] was determined as 520. In addition, the “GFP MFI, FIG. 9” value in data set [2] was 167,024. Also, in data set [2] (three days), the “GFP MFI, FIG. 8” value was 265,396 and the “GFP MFI, FIG. 10” value was found to be 520.

B3: WT tRNA: wild type tRNApyl gene of Methanosarcina mazei without extragenic promoter (nucleic acid, listed as Methanosarcina mazei)
DNA: GGAAACCTGATCATGTAGATCGAATGGACTCTAAATCCGTTCAGCCGGGTTAGATTCCCGGGGTTTCCG
modifications: expressed or natural sequence
notes: wild type tRNApyl gene of Methanosarcina mazei without extragenic promoter
B3: in data set [1] (2 mM lys azide), the “GFP MFI in the presence of lys-azide, FIG. 6” value was 33,781. Moreover, the “GFP MFI, FIG. 9” value in data set [2] is given as 25,459. Moreover, the “GFP MFI, FIG. 8” value in data set [2] (three days) is 117,626. In addition, in data set [2] (2 mM lys-azide nnAA, three days), the “GFP mean fluorescence intensity (MFI), FIG. 5” value is 114,478.1. Moreover, in data set [2] (cells expressing WTpylRS, after two days, single copy), the “GFP MFI, single copy tRNA, FIG. 7” value is on record as 18,002. In data set [2] (cells expressing WTpylRS, after two days, single vector containing two copies in tandem), the “GFP MFI, tandem copies of tRNA, FIG. 7” value is on record as 20,617.
